These are literature values, as cited in article PMC5414288, “^99mTc-radiolabeled GE11-modified peptide for ovarian tumor targeting” (DARU Journal of Pharmaceutical Sciences, 2017).

What is called Kd is the free concentration of one partner at which half of the binding sites on the other are occupied at equilibrium, for simple one-to-one binding.

The target of the series is EGFR (Homo sapiens) (UniProt P00533).

Turning to GE11, the Kd was 22 nM.
